Assay results as given in paper PMC6629437 (Cell, 2019).
Positions count from the first letter of the chain named. In names and notes the source's numbering stands.

B1: rFluA-20 IgG (recombinant FluA-20 IgG) (antibody, V domains shown)
VH: QVQLEESGPGLVKPSETLSLTCSVSGVSVTSDIYYWTWIRQPPGKGLEWIGYIFYNGDTNYNPSLKSRVTMSIDTSKNEFSLRLTSVTAADTAVYFCARGTEDLGYCSSGSCPNHWGQGTLVTVSS
VL: DIVMTQSPSSLSASIGDRVTITCRPSQNIRSFLNWFQHKPGKAPKLLIYAASNLQSGVPSRFSGSGSGTEFTLTIRSLQPEDFATYYCQQSYNTPPTFGQGTKVEIK
B2: rFluA-20 IgG Y49A (L) (antibody, V domains shown)
VH: B1 VH
VL: B1 VL with Y49A
B3: rFluA-20 IgG D98A (H) (antibody, V domains shown)
VH: B1 VH with D103A
VL: B1 VL

Legend:
[1] = target: H7 HA of A/Netherlands/219/2003, soluble trimer (Influenza A virus …, UniProt Q6VMK1, strain); experiment: ELISA
[2] = target: H5 HA of A/Indonesia/5/2005 (Influenza A virus A/Indonesia/5/2005 …, UniProt A5A5L7, strain); experiment: ELISA

Binder	binding result [1]	binding result [2]
B1	binds	–
B2	–	no binding (tested: 10 μg/mL)
B3	–	no binding (tested: 10 μg/mL)
